The values that follow come from patent publication US20200062829A1 (PANASONIC INTELLECTUAL PROPERTY MANAGEMENT, published 2020).

In this test the target is T1, VLP noro antigen derived from the norovirus GII/4, composed by associating 90 dimers of VP1 each including … (norovirus GII/4, UniProt P54635 1-539).
T1 construct: Virus-like particle of 90 VP1 dimers (180 copies); also called solid phase VLP
T1 chain: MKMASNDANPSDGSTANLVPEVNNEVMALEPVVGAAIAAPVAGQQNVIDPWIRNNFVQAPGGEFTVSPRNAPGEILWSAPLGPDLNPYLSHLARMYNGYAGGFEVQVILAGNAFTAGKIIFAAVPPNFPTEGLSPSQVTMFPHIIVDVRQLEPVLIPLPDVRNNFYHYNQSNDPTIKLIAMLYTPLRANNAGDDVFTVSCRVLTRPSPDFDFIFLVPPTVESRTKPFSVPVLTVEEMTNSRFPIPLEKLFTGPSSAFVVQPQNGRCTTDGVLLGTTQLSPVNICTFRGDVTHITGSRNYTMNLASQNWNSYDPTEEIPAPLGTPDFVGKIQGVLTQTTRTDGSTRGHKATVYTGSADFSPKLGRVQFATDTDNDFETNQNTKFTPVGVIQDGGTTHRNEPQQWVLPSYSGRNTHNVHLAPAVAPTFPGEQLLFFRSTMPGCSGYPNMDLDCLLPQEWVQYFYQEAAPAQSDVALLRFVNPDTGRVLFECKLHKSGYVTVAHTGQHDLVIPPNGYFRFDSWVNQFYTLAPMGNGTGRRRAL
As to the kind of experiment: SPR (T200, CM3), VLP noro antigen immobilised, antibody as analyte.

B1: Antibody bound to the protein represented by SEQ ID NO: 102 (N to C: protein molecule SEQ ID NO: 44 - linker - structural domain SEQ ID NO: 39) (VHH)
chain: QVQLVESGGGLVQAGKSLRLSCTASGSIPSIGVMGWHRQAPGKQRELVATISQGGHINYFESVKGRFTISRDNAKNTVYLQMNSLKPEDTGVYYCNAFWLPLRLNDYWGQGTQVTVSSGGGGSGGGASGGGGSQLQLVESGGGLVQAGGSLRLSCVASGFPFASSAMAWFRQAPGKEREFVASISYRGITTYYAQPVKGRFTMSRDNAKNTVYLQMNSLKPEDTAVYYCYAKSIWGNAYWGQGTQVTVSPEPKTPKPQSASAA
notes: One chain; Made in E. coli; tags not described
With B1, binding was characterised by a dissociation constant (Kd) of 10.2 nM, the koff was 0.0109 s⁻¹ and the on-rate (kon) turned out to be 1.07e+06 M⁻¹ s⁻¹.

B2: Antibody bound to the protein represented by SEQ ID NO: 100 (structural domain SEQ ID NO: 38 - linker - protein molecule SEQ ID NO: 44) (VHH)
chain: QVQLVESGGGVVQTGGSLRLSCAASGSTFSIGAMGWYRQAPGKQRELVATVNRASRTIYADSVRGRFTISRDNAKNLVYLQMNNLKPEDTAVYYCNVIATSASGRGVTSTSWGQGSQVTVSSGGGGSGGGASGGGGSQVQLVESGGGLVQAGKSLRLSCTASGSIPSIGVMGWHRQAPGKQRELVATISQGGHINYFESVKGRFTISRDNAKNTVYLQMNSLKPEDTGVYYCNAFWLPLRLNDYWGQGTQVTVSSEPKTPKPQSASAA
notes: tags not described
For B2, the Kd is 2.38 nM, the koff came out at 0.00698 s⁻¹ and the on-rate (kon) amounted to 2.93e+06 M⁻¹ s⁻¹.

B3: VHH antibody consisting of the amino acid sequence represented by SEQ ID NO: 67 (monomer antibody; includes the structural domain SEQ ID NO: 39) (VHH)
VHH: QLQLVESGGGLVQAGGSLRLSCVASGFPFASSAMAWFRQAPGKEREFVASISYRGITTYYAQPVKGRFTMSRDNAKNTVYLQMNSLKPEDTAVYYCYAKSIWGNAYWGQGTQVTVSP
notes: also called Monomer Antibody 67
Molecule B3 registered a koff of 0.0194 s⁻¹.

As usually defined, the Kd is a measure of binding affinity in units of concentration. The koff is the rate constant with which the complex falls apart. Read a high koff as a short-lived complex. What is called kon is the second-order rate constant of association. Read a high kon as faster complex formation.
